Measured values from article PMC3424535.

B1: p/m (dsDNA)
DNA 1: ATCTCTCTATTCACCGGTATTCTCTCTTTC
DNA 2: GAAAGAGAGAATACCGGTGAATAGAGAGAT
modifications: pyrrolo-dC at position 14 of strand 1; 5mC at position 14 of strand 2
B2: p/p (dsDNA)
DNA 1: B1 DNA 1
DNA 2: B1 DNA 2
modifications: pyrrolo-dC at position 14 of each strand (first C of ACCGGT)

Target: T1, McrB-N (N-terminal DNA-binding domain of McrB) (Escherichia coli, UniProt P15005 1-161)
T1 sequence: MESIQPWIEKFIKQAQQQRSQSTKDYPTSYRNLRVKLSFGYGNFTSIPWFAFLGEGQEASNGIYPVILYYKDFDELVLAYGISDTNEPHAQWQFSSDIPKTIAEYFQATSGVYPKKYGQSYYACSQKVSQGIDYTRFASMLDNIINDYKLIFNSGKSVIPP
Experiment: pyrrolo-dC fluorescence

Binder | binding signal
B1 | ~4 fold increase of pyrrolo-dC fluorescence (not affinity)
B2 | 2.6 fold increase of pyrrolo-dC fluorescence (not affinity)
